Data: US20250332257A1 (published 2025)
Substitutions are numbered along the chain they refer to.

T1: HPV E6 peptide on HLA-A*11:01 (human)
T1 peptide: TTLEQQYNK

B1: TCR010 (TCR, V domains shown)
Valpha: AQSVTQLDSHVSVSEGTPVLLRCNYSSSYSPSLFWYVQHPNKGLQLLLKYTSAATLVKGINGFEAEFKKSETSFHLTKPSAHMSDAAEYFCVVSLSGGYNKLIFGAGTRLAVHP
Vbeta: DSGVTQTPKHLITATGQRVTLRCSPRSGDLSVYWYQQSLDQGLQFLIQYYNGEERAKGNILERFSAQQFPDLHSELNLSSLELGDSALYFCASSVTGSGYTFGSGTRLTVV
B2: TCR013 (TCR, V domains shown)
Valpha: GQQVMQIPQYQHVQEGEDFTTYCNSSTTLSNIQWYKQRPGGHPVFLIQLVKSGEVKKQKRLTFQFGEAKKNSSLHITATQTTDVGTYFCAGPKITGGGNKLTFGTGTQLKVEL
Vbeta: DSGVTQTPKHLITATGQRVTLRCSPRSGDLSVYWYQQSLDQGLQFLIQYYNGEERAKGNILERFSAQQFPDLHSELNLSSLELGDSALYFCASSVGGGPNYGYTFGSGTRLTVV
B3: TCR090 (TCR, V domains shown)
Valpha: B2 Valpha with T81L, K93V, I94L
Vbeta: DSGVTQTPRYLITATGQRVTLRCSPRSGDLSVYWYQQSLDQGLQFLIQYYNGEERAKGNILERFSAQQFPDLHSELNLSSLELGDSALYFCASSVGGPNTGELFFGEGSRLTVL
B4: TCR028 (TCR, V domains shown)
Valpha: B2 Valpha with K93I, I94L
Vbeta: B3 Vbeta with R9K, Y10H, S94G, V95L, G96S

Target: T1, HPV E6 peptide on HLA-A*11:01
Assay: multimer staining

Binding result, recognises:
B1
B2
B3
B4
